Laboratory results published in US5783384, “Selection of binding-molecules” (President and Fellows of Harvard College).

Biological target: T1, GCN4 basic region peptide with 3-residue linker (monomeric) (UniProt P03069 SEQ:1-24)
T1 chain: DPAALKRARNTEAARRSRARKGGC
Test: EMSA; disulfide-tethered complex, reduction gel shift with 2-ME or DTT, pH 7.5 or 8.5; outcome only in figure
Conditions: protein: synthetic; tags: synthetic peptide, disulfide-tethered to DNA through linker thiol
Method: To test if the reduction potential of the disulfide bond corresponds to the affinity of the peptide for the adjacent DNA sequence, wild-type and mutant double-stranded DNA-peptide complexes were incubated in the presence of reducing agents 2-mercaptoethanol (2-ME) or dithiothreitol (DTT). (FIG. 4) The free (lower bands) vs. coupled DNA molecules (upper bands) were resolved on 20% nondenaturing polyacrylamide gel after. The wild-type peptide-DNA complex (wt) was consistently more resistant to reduction than the complex having mutation in either peptide (L, P) or DNA sequence (M3). Peptide-DNA complexes differ with respect to the gel mobility as well. The mutant complexes (L, P, M3) have lower gel mobility than the wild-type complex (wt), although the corresponding free (uncomplexed) DNA molecules run at the same speed.
Annealing of the oligonucleotide-peptide complex with the complementary oligonucleotide was done as described above, in the binding buffer of the same composition and desired pH (7.5 or 8.5). 2-ME or DTT was added and reactions were incubated at defined temperature in a water bath. Glycerol-running dye mixture was added (final concentration of glycerol is 5%) and reactions were loaded on 20% nondenaturing gel and run at low voltage (up to 120 V) for 16–24 hours at room temperature. (See FIG. 4).

B1: WT GCN4 half-site 39-mer (dsDNA)
DNA 1: AAGGTTAAACGTGCAAGTCATCGGTATAGGTCGAGAAGT
DNA 2: ACTTCTCGACCTATACCGATGACTTGCACGTTTAACCTT
modifications: N6-thioalkyl-dA adjacent to the half-site (disulfide tether)
B1: binds.
